Here are results for four molecules from PMC5789952 (Proceedings of the National Academy of Sciences of the …, 2017).

The target in one data set is T1, IRF9–IAD_(182–385) (mouse, UniProt Q61179 182-385).
T1 sequence (looked up): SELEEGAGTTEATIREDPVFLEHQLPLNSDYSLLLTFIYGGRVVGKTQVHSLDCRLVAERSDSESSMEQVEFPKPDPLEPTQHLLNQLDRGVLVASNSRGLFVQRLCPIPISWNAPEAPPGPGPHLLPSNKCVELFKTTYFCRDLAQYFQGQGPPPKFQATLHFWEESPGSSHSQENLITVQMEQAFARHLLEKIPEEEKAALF
As to the kind of experiment: SEC.

The target of another data set is T2, IRF9-DBD (Mus musculus, UniProt Q61179 1-116).
T2 sequence: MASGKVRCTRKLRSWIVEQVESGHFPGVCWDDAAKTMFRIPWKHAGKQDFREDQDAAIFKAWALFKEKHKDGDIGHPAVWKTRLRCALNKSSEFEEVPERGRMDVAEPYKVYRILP
As to the kind of experiment: EMSA. In general terms: Mobility shift assays separate free from complexed probe on a gel.

A further data set deals with T3, STAT2_(133–679) (mouse, UniProt Q9WVL2 133-679).
T3 sequence (looked up): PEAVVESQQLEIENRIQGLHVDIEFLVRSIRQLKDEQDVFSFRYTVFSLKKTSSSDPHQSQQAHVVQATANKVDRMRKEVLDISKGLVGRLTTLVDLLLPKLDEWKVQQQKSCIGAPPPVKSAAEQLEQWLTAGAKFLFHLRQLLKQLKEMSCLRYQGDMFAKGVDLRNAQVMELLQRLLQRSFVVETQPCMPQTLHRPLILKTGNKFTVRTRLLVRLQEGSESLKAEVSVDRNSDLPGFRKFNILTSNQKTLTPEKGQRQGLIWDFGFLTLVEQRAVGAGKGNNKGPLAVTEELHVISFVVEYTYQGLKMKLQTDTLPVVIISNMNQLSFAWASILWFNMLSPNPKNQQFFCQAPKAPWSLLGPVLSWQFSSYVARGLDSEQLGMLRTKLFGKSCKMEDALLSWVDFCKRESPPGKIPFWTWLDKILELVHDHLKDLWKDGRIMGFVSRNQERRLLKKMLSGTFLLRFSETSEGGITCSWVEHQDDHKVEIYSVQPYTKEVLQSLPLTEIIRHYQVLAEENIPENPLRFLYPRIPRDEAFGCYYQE
As to the kind of experiment: SEC-MALS.

The target of data set [1] is T4, STAT2 (133–748) of the purified STAT1–STAT2 heterodimer (mouse, UniProt Q9WVL2 133-748).
T4 sequence (looked up): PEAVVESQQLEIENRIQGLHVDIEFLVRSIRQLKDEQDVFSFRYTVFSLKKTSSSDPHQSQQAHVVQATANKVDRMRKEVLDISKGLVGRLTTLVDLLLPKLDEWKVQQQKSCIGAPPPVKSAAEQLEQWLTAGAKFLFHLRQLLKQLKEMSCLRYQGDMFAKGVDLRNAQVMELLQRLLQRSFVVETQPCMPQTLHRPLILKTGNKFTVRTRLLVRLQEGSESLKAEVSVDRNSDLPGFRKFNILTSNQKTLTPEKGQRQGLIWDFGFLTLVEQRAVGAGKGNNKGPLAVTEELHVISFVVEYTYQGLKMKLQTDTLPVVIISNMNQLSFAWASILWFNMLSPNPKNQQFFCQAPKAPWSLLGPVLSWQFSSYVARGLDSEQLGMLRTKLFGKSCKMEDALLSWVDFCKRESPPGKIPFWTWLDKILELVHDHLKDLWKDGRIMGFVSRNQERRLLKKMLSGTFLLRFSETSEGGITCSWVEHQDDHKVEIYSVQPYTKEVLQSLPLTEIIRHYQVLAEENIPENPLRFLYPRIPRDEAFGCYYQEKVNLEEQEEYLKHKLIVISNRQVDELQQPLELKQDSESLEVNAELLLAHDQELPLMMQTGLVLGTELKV
Description: tandem affinity co-purification.

One may read the stoichiometry N as a count of units in the complex or per binding partner.

B1: STAT2_(133–315) (domain or fragment, mouse, UniProt Q9WVL2 133-315, looked up)
chain: PEAVVESQQLEIENRIQGLHVDIEFLVRSIRQLKDEQDVFSFRYTVFSLKKTSSSDPHQSQQAHVVQATANKVDRMRKEVLDISKGLVGRLTTLVDLLLPKLDEWKVQQQKSCIGAPPPVKSAAEQLEQWLTAGAKFLFHLRQLLKQLKEMSCLRYQGDMFAKGVDLRNAQVMELLQRLLQRS
For the molecule B1, the binding result in the data set with IRF9–IAD_(182–385) is listed as “binds”.

B2: ADAR ISRE 29 bp (dsDNA)
DNA 1: TAAGCCTTTTCAAGGAAACGAAAGTGAAC
DNA 2: AGTTCACTTTCGTTTCCTTGAAAAGGCTT
With B2, the binding result in the data set with IRF9-DBD is reported as “binds”.

B3: IRF9_(182–399) (domain or fragment, mouse, UniProt Q61179 182-399, looked up)
chain: SELEEGAGTTEATIREDPVFLEHQLPLNSDYSLLLTFIYGGRVVGKTQVHSLDCRLVAERSDSESSMEQVEFPKPDPLEPTQHLLNQLDRGVLVASNSRGLFVQRLCPIPISWNAPEAPPGPGPHLLPSNKCVELFKTTYFCRDLAQYFQGQGPPPKFQATLHFWEESPGSSHSQENLITVQMEQAFARHLLEKIPEEEKAALFLLQHTEQSPSALGH
Turning to B3, the “stoichiometry N” value in the data set with STAT2_(133–679) came to 1.

B4: STAT1 (136–713) of the purified STAT1–STAT2 heterodimer (domain or fragment, mouse, UniProt P42225 136-713, looked up)
chain: LDKQKELDSKVRNVKDQVMCIEQEIKTLEELQDEYDFKCKTSQNREGEANGVAKSDQKQEQLLLHKMFLMLDNKRKEIIHKIRELLNSIELTQNTLINDELVEWKRRQQSACIGGPPNACLDQLQTWFTIVAETLQQIRQQLKKLEELEQKFTYEPDPITKNKQVLSDRTFLLFQQLIQSSFVVERQPCMPTHPQRPLVLKTGVQFTVKSRLLVKLQESNLLTKVKCHFDKDVNEKNTVKGFRKFNILGTHTKVMNMEESTNGSLAAELRHLQLKEQKNAGNRTNEGPLIVTEELHSLSFETQLCQPGLVIDLETTSLPVVVISNVSQLPSGWASILWYNMLVTEPRNLSFFLNPPCAWWSQLSEVLSWQFSSVTKRGLNADQLSMLGEKLLGPNAGPDGLIPWTRFCKENINDKNFSFWPWIDTILELIKNDLLCLWNDGCIMGFISKERERALLKDQQPGTFLLRFSESSREGAITFTWVERSQNGGEPDFHAVEPYTKKELSAVTFPDIIRNYKVMAAENIPENPLKYLYPNIDKDHAFGKYYSRPKEAPEPMELDDPKRTGYIKTELISVSEVH
For B4, the binding result in data set [1] is “binds”.
